PMC3078890, “Sponge non-metastatic Group I Nme gene/protein - structure and function is conserved from sponges to humans” (BMC Evolutionary Biology, 2011)

Molecular target: the molecule itself
Assay: cross-linking; 8 ug protein in PBS at room temperature, 25 mM glutaraldehyde for 5 min, quenched with 0.2 M Tris-HCl pH 7.5; 12.5% SDS-PAGE, Coomassie staining

B1: sponge NmeGp1Sd protein (Suberites domuncula Group I Nme), recombinant (natural protein, UniProt Q5DIW9 1-151, looked up)
chain: MTTERTYIMIKPDGVQRGLMGDIIKRFEQKGFKMVAMKFMQPSEKLLSEHYADLSKKPFFPGLVKFMATSPVCCMVWEGQGAVATGRQMLGETDPAKSKPGTIRGDFCIHIGRNICHGSDSVESANKEIALWFKPEELVDWTPTEQQWIYE
notes: NmeGp1Sd (formerly Nm23-SD1), Group I Nme / nucleoside diphosphate kinase of the marine sponge Suberites domuncula; cDNA cloned into pET15b (NdeI/BamHI) with primers from the ATG start codon to the stop codon; Cloned downstream of the thrombin site of pET15b; residues of the vector may remain at the N-terminus after cleavage; also called Nm23-SD1; not shown: His6, N-terminal, cleaved
Q: B1 was tested. Which “stoichiometry N” value did it give?
A: 6
